The target in one assay is T1, human MAGEA1 (human, UniProt P43355 1-309).
T1 construct: whole, on cells; FFPE cell pellets
T1 sequence (looked up): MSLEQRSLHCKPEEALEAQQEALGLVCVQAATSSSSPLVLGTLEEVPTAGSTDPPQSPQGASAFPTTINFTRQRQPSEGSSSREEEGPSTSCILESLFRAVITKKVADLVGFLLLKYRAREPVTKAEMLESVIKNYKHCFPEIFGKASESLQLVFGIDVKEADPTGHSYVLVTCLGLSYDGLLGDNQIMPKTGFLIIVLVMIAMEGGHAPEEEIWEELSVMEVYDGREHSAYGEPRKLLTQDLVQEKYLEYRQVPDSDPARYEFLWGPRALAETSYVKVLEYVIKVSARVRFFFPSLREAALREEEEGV
Briefly: IHC, FFPE CHO cells transfected with human MAGEA1. On the procedure: (§1) FFPE samples were sectioned at 4 μm and mounted on positive charged glass slides. After mounting, paraffin sections were air-dried at room temperature. FFPE TMA samples were received as freshly sectioned and mounted on glass slides. The fully automated IHC assay was performed on a Discovery Ultra Stainer (Ventana Medical Systems, Tucson, AZ) using Ventana Anti-Rabbit HQ (cat #760-4815), Ventana Anti-HQ HRP (cat #760-4820), and Ventana Antibody Diluent with Casein (cat #760-219) (Ventana Medical Systems, Tucson, AZ). The slides were baked on the Discovery Ultra Stainer at 60° C. for 8 minutes, de-paraffinized with Ventana Discovery wash (cat #950-510) for 3 cycles (8 minutes each) at 69° C., and underwent cell conditioning (target retrieval) at 95° C. for 16 minutes (for cell arrays) or 32 minutes (tissues or TMAs) in CC1 buffer (cat #950-500). Following this, slides were incubated with Background Sniper (cat #BS966M, Biocare Medical, Pacheco, CA) in a Ventana Option Prep kit (cat #771-751) for 28 minutes, incubated with CM inhibitor (a part of the Ventana DAB kit cat #760-159) for 12 minutes, and incubated for 1 h at RT with MAGE-B2 antibody diluted with Ventana diluent with Casein in a Ventana Prep kit (cat #770-001) (working concentration at 0.1 μg/ml for cell pellet, or 1-5 ug/ml for tissues) or with a matched concentration of isotype control Rabbit IgG1 antibody. Following this, slides were incubated with the Ventana Anti-Rabbit HQ (cat #760-4815) for 28 minutes at RT, Ventana Anti-HQ HRP (cat #760-4820) for 28 minutes at RT, and signals detected with Ventana DAB chromogen kit (cat #760-159) for 5 minutes at RT. Slides were counterstained with Ventana Hematoxylin II (cat #5266726001) for 8 minutes and Ventana Bluing reagent (cat #526676900) for 4 minutes. Slides were coverslipped and digitized using an Aperio AT2 scanner (Leica Biosystems Inc, Buffalo Grove, IL).

In another assay the target is T2, human MAGEB1 (human, UniProt P43366 1-347).
T2 construct: whole, on cells; Transfected into CHO cells with Myc/DDK tags
T2 sequence (looked up): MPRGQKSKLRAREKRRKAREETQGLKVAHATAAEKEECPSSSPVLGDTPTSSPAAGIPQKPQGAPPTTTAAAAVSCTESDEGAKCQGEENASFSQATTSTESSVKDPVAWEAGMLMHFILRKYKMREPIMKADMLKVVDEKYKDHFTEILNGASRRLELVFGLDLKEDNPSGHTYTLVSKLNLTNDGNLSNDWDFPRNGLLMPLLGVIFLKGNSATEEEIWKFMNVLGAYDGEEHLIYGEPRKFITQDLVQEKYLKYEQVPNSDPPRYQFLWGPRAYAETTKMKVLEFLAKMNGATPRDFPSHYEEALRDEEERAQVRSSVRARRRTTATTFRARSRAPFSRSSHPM
Briefly: IHC, FFPE CHO cells transfected with human MAGEB1.
Description: Negative control cells included parental Chinese hamster ovary (CHO) cells, CHO cells stably transfected with mCherry Vector Control (minus Myc/DDK tags), CHO cells stably transfected with mCherry-human DCAF4L2 (plus Myc/DDK tags). The cross-reactivity control cells included CHO cells transfected with mCherry Vector Control (plus Myc/DDK tags) with one of the human MAGE-B or MAGE-A family members (MAGEA1, MAGEA2, MAGEA3, MAGEA4, MAGEA5, MAGEA6, MAGEA8, MAGEA9, MAGEA11, MAGEA12, MAGEB1, MAGEB3, MAGEB4, MAGEB5, MAGEB6, MAGEB10, MAGEB16, MAGEB17, MAGEB18). Positive control cell lines included CHO cells transfected with mCherry Vector (plus Myc/DDK tags) with human MAGE-B2 or CHO cells transfected with mCherry Vector (open reading frame (ORF); minus Myc/DDK tags) with human MAGEB2, and thirteen human cancer cell lines with known endogenous RNA expression level of MAGEB2 (U266B1, T98G, KMM-1, U20S, CFPAC-1, SCaBER, UACC-257, CFPAC-1, VMRC-LCD, NCI-H1703, UM-UC-3, NCI-H1395, NCIH82).
as §1, with “antibody.” for “antibody. Following this, slides were incubated with the Ventana Anti-Rabbit HQ (cat #760-4815) for 28 minutes at RT, Ventana Anti-HQ HRP (cat #760-4820) for 28 minutes at RT, and signals detected with Ventana DAB chromogen kit (cat #760-159) for 5 minutes at RT. Slides were counterstained with Ventana Hematoxylin II (cat #5266726001) for 8 minutes and Ventana Bluing reagent (cat #526676900) for 4 minutes. Slides were coverslipped and digitized using an Aperio AT2 scanner (Leica Biosystems Inc, Buffalo Grove, IL).”

Changes are numbered by the printed parent chain.

B1: 1C3 (antibody, V domains shown)
VH: QSLEESGGGLVQPEGSLTLTCTAFGVTLTNYYICWVRQAPGKGLEWVGCIDNANGRTYYASWAKGRFTISKTSSTTGTLQMTSLTAADTATYFCARSLATPLWGPGTLVTVSS
VL: DIVMTQTPSSVEAAVGGTVTIKCQASQNISSYLAWYQQKPGQPPKLLIYRASTLASGVPSRFKGSGSGTQFTLTISDLECADAATYYCQSYDDSRSSNFFYAFGGGTEVVVKG
notes: also called MAGE-B2 (IC3); anti-MAGEB2 antibody 1C3
For the molecule B1, the binding result in the assay with human MAGEA1 and in the assay with human MAGEB1 was “no binding (tested: 0.1 µg/ml)” throughout.

B2: 4G17 (antibody, IgG1, V domains shown)
VH: B1 VH with F24S, T29S, V47I, A53V
VL: DIVMTQTPASVEAAVGGTVTIKCQASQNIDSYLAWYQQKPGQPPKLLIYRASTLASGVPSRFKGSGSGTEFTLTISDLECADAATYYCQSYDDSRSSSFFYGFGGGTEVVVK
notes: Rabbit monoclonal IgG1; Tested as supernatant and as small batch purified antibody; also called MAGE-B2 (4G17); anti-MAGEB2 antibody 4G17
Regarding B2, the binding result with human MAGEA1 and in the assay with human MAGEB1 was “no binding (tested: 0.1 µg/ml)” throughout.

B3: 1J15 (antibody, IgG1, V domains shown)
VH: B1 VH with V26F, T29N, V47I, G48A, G77V, A99S
VL: B2 VL with N28S, D30S, A34S, K63R, E70Q, R95S, S96D, S97N, S98N, K112R
notes: Rabbit monoclonal IgG1; Tested as supernatant and as small batch purified antibody; also called MAGE-B2 (IJ15); anti-MAGEB2 antibody 1J15
Regarding B3, the binding result in the assay with human MAGEA1 and in the assay with human MAGEB1 was “no binding (tested: 0.1 µg/ml)” each time.

B4: 1I14 (antibody, V domains shown)
VH: QSVEESGGRLVTPGTPLTLTCTISGFSLSSYAMSWVRQAPGKGLEWIGSIGGGGSAVYASWAKGRFTISKTSTTVDLRITSPTTEDTAMYFCGRGFYSIDLWGPGTLVTVSS
VL: DVVMTQTPASVEATVGGTVTIKCQSSQSVYDNNALAWYQQNAGQRPRLLIYGASTLASGVPSRFSASGSGTEFTLTISDLECADAATYYCQCTYYVSSYQNDFGGGTEVVVKG
notes: also called MAGE-B2 (1i14)
In the case of B4, the binding result with human MAGEA1 and in the assay with human MAGEB1 was “no binding (tested: 0.1 µg/ml)” each time.

The record behind these values is patent US20250282887A1 (Amgen, published 2025).
